Assay results taken from US20220289795, “EFFICIENT METHOD FOR PREPARING PPR PROTEIN AND USE OF THE SAME” (EditForce, Inc., published 2022).
Substitutions are numbered along the chain they refer to.

Tests used:
[1] = test system: v2_PPR5 (Artificial Sequence); assay: ELONA
[2] = test system: v2_PPR1 (Artificial Sequence); assay: ELONA
[3] = test system: v2_PPR3 (Artificial Sequence); assay: ELONA
[4] = test system: v2_PPR2 (Artificial Sequence); assay: ELONA
v3.1_PPR6 = target: T1, v3.1_PPR6 (Artificial Sequence); assay: ELONA; RPB-ELISA; conditions: tags: luciferase fusion; label: 5'-biotin
T1 chain: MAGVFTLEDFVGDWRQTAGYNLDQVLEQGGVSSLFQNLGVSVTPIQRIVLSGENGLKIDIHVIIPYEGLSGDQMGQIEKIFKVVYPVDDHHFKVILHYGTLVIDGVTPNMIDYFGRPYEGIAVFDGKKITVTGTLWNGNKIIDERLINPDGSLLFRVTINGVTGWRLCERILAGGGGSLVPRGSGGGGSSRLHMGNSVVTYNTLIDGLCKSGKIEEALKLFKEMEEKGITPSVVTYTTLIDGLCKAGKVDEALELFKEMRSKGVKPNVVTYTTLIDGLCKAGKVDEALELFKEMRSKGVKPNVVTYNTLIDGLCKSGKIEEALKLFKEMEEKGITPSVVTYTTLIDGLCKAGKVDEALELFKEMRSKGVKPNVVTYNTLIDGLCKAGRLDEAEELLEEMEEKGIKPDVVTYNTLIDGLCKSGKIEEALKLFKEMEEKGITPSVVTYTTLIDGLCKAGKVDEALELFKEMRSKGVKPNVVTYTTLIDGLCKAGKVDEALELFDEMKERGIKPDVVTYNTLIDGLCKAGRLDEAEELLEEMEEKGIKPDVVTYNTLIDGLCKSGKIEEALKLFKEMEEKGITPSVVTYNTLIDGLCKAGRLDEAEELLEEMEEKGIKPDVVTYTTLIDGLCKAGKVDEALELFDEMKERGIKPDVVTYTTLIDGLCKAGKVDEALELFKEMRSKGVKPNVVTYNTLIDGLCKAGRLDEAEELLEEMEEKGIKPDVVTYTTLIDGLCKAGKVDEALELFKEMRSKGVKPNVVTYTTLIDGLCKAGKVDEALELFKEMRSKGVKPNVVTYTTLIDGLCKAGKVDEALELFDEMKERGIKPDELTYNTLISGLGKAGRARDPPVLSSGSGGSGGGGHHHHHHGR

NL_v2_PPR7 = target: T2, NL_v2_PPR7 (Artificial Sequence); assay: ELONA; RPB-ELISA; conditions: tags: N-term luciferase, C-term 6xHis; label: 5'-biotin
T2 chain: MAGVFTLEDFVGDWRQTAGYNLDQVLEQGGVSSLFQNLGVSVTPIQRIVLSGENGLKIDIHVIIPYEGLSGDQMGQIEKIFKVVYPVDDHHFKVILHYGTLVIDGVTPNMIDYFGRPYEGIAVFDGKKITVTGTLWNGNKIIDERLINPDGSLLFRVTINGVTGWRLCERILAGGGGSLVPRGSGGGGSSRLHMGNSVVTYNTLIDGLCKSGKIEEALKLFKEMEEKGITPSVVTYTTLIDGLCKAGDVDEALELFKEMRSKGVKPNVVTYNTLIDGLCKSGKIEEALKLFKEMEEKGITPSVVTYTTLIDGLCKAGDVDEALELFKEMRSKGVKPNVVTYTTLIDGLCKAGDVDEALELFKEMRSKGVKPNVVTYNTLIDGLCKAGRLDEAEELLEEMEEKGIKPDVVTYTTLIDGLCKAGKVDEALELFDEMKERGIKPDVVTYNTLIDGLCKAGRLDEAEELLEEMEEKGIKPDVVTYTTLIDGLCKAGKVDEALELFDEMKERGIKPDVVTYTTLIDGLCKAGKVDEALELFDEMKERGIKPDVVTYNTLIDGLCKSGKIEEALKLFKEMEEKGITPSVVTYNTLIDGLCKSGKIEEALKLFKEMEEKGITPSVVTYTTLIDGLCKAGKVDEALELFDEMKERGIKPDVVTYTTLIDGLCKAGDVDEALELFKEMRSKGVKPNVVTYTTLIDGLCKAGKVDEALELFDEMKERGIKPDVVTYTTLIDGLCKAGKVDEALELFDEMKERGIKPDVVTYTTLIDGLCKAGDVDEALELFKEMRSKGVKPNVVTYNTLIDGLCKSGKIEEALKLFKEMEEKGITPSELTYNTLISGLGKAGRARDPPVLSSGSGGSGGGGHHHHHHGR

v3.1_PPR7 = target: T3, v3.1_PPR7 (Artificial Sequence); assay: ELONA; RPB-ELISA; conditions: tags: luciferase fusion; label: 5'-biotin
T3 chain: T2 chain with D248K, D318K, D353K, D668K, D773K

v3.1_PPR9 = target: T4, v3.1_PPR9 (Artificial Sequence); assay: ELONA; RPB-ELISA; conditions: tags: luciferase fusion; label: 5'-biotin
T4 chain: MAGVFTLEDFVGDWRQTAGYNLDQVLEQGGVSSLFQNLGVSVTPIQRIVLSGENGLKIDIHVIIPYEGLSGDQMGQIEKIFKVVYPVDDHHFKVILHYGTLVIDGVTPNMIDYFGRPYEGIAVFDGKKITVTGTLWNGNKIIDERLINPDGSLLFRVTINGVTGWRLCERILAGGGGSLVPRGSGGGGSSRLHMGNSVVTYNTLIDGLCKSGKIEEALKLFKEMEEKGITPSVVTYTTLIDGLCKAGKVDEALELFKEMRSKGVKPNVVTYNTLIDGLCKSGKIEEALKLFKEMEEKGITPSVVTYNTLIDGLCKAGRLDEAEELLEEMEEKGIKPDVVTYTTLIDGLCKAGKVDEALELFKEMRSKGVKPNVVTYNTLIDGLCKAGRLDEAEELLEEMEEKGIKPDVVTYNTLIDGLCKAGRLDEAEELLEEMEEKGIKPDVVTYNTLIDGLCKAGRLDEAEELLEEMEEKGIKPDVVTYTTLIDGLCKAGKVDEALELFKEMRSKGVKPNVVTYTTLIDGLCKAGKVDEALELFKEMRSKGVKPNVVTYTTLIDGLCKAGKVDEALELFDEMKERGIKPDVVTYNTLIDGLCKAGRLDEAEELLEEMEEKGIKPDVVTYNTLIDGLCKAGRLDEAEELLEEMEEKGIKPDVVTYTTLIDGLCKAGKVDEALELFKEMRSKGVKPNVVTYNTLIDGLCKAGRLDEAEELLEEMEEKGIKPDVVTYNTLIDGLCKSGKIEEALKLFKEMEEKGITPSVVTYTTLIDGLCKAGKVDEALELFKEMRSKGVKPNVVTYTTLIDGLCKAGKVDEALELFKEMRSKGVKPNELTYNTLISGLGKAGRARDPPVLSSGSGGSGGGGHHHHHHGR

NL_v2_PPR9 = target: T5, NL_v2_PPR9 (Artificial Sequence); assay: ELONA; RPB-ELISA; conditions: tags: N-term luciferase, C-term 6xHis; label: 5'-biotin
T5 chain: T4 chain with K248D, K353D, K493D, K528D, K668D, K773D, K808D

GAAUGAACUCUUCCGGGA [T_1 (in RNA_1)]
binding signal (log2 luminescence) ([1]; off-target, on-target 25.83): 18.1 | binding signal ([2]; RPB-ELISA): 6.6e+07 luminescence | binding signal (log2 luminescence) ([3]; off-target, on-target 25.00): 16.7 | binding signal (log2 luminescence) ([4]; off-target): 17

CUGAGUCAUAACCAGCCU [T_3 (in RNA_3)]
binding signal ([3]; RPB-ELISA): 3.3e+07 luminescence

GAGAGGAAGCCUGAGAGU [T_2 (in RNA_2)]
binding signal ([4]; RPB-ELISA): 5.7e+07 luminescence

GACAUGCCAACAUCAGUCUGAUAAGGACUG [RNA_6]
binding signal (log2 luminescence) ([2]; off-target, on-target 25.98): 14.4

GACAUGCCACAAUGUGGCCGAGGACGACUG [RNA_7]
binding signal (log2 luminescence) ([4]; off-target cross-binding): 24.8

GGCAAAAAGAUCACUGUA [T_5 (in RNA_5)]
binding signal ([1]; RPB-ELISA): 6e+07 luminescence

GACAUGCCAACAUCAGUCUGAUAAGGACUG (ssRNA) [RNA_6]
binding signal (v3.1_PPR6): 6.1e+06 luminescence

GACAUGCCACAAUGUGGCCGAGGACGACUG (ssRNA) [RNA_7]
binding signal (NL_v2_PPR7): 1.9e+07 luminescence | binding signal (v3.1_PPR7): 3.4e+07 luminescence

GACAUGCCACUAUUUAAGUUAUCAAGACUG (ssRNA) [RNA_9]
binding signal (v3.1_PPR9): 2.2e+06 luminescence | binding signal (NL_v2_PPR9): 4.7e+07 luminescence
